Measurements reported in publication PMC10148881, “Recognition of an Ala-rich C-degron by the E3 ligase Pirh2” (Nature Communications, 2023).
Blank lines part the entries; values can stand above or below the binder they belong to.

Assays:
Experiment in all cases: ITC; peptides (0.6–1.0 mM) titrated into the cell with 180–220 μM protein at 16 °C; 20 mM Tris-HCl pH 7.5, 150 mM NaCl, 10 μM Zn2+; one-site binding model
Conditions in all cases: both partners purified
[1] = target: T1, Pirh2 NTD + RING (residues 1–189) (human, UniProt Q96PM5 1-189)
T1 construct: human Pirh2 (Rchy1), NTD + RING, residues 1–189; source: E. coli BL21 (DE3), purified (Ni-NTA, TEV cleavage, SEC); not shown: 8xHis-SUMO, N-terminal, cleaved
T1 sequence (looked up): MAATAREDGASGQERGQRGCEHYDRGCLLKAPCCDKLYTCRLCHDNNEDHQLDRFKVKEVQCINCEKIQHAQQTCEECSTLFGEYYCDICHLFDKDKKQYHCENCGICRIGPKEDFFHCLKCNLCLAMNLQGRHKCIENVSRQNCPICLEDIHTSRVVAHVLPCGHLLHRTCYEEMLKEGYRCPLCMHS

[2] = target: T2, full-length Pirh2 (residues 1–261) (human, UniProt Q96PM5 1-261)
T2 construct: human Pirh2 (Rchy1, RING finger and CHY zinc finger domain-containing protein 1), residues 1–261; Cloned into pET28-MKH8SUMO; the tag was cut off with TEV protease; also called Rchy1; p53-induced RING-H2 protein; source: E. coli BL21 (DE3), purified (Ni-NTA, TEV cleavage, SEC); not shown: 8xHis-SUMO, N-terminal, cleaved
T2 sequence (looked up): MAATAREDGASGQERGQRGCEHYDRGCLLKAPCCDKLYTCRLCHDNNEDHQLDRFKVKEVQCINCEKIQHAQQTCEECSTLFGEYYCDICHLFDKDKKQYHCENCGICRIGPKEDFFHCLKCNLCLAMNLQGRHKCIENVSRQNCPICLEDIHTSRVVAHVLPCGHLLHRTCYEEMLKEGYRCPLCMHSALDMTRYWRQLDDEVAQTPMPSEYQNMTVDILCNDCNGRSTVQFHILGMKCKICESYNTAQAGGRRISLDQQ

[3] = target: T3, Pirh2 NTD (residues 1–137) (human, UniProt Q96PM5 1-137)
T3 construct: human Pirh2 (Rchy1), NTD, residues 1–137; also called CHY zinc finger; source: E. coli BL21 (DE3), purified (Ni-NTA, TEV cleavage, SEC); not shown: 8xHis-SUMO, N-terminal, cleaved
T3 sequence (looked up): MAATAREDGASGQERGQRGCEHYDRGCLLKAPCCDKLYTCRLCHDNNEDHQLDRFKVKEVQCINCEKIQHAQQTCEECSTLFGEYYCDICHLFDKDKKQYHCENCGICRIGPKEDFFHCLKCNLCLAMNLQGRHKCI

Kd [1]: 15 µM
Binder: YKTSAAAATA [Ala6/C-degron peptide with the threonine mutation of Ala-2]

Kd [1]: 0.5 µM
Kd [2]: 0.9 µM
Kd [3]: 5.5 µM
B1: Ala6/C-degron peptide (sequence: YKTSAAAAAA) (peptide)
peptide: YKTSAAAAAA
notes: decapeptide with a C-terminal six-Ala degron and a free C-terminus; also called decapeptide containing the Ala6/C-degron; six-Ala peptide; source: synthetic peptide
